# In US10590475B2, “Detection of immune cells, in particular T cells through DNA-methylation analysis of the genes CCR6 and BLR1” (Epiontis GmbH, priority 2010, dated 2020):
# B1: IL-4: cytokine reported to promote TCR-induced CCR6 down-regulation (protein, UniProt P05112 25-153, looked up)
# Interleukin-4: HKCDITLQEIIKTLNSLTEQKTLCTELTVTDIFAASKNTTEKETFCRAATVLRQFYSHHEKDTRCLGATAQQFHRHKQLIRFLKRLDRNLWGLAGLNSCPVKEANQSTLENFLERLKTIMREKYSKCSS
# System: CCR6^+CD4^+ memory T cells
# Assay: CCR6 expression on CCR6+CD4+ memory T cells after TCR stimulation (anti-CD3/anti-CD28 beads)
# Assay type: cell-based, human
# Settings: six days, TGF-ß 10 ng/ml
# Description: Buffy coats (DRK Blutspendedienst, Berlin, Germany) and peripheral blood samples were obtained from healthy donors after informed consent in accordance with local ethical committee approval. PBMCs were separated with a Ficoll-Hypaque gradient (Sigma-Aldrich). Cell surface antigens were analyzed by single-parameter or multi-parameter fluorescence-activated cell sorter (FACS®, BD Biosciences) analysis using the following monoclonal antibodies: PE-anti-CCR6 (11A9) and Alexa700-anti-CD4 (RPA-T4) (both from BD Biosciences). APC-anti-CD25 (BC96) was purchased from ebioscience. PE-Cy5-anti-CD8 (B9.11), PE-Cy5-anti-CD56 (N901) and FITC-anti-CD25 (B1.49.9) from Beckman Coulter. Antibodies generated in house (DRFZ, Berlin): FITC-anti-CD45RA (4G11), Alexa405-anti-CD4 (TT1) and Alexa405-anti-CD3 (OKT3). In some experiments, CCR6 expression was detected by indirect immunofluorescence using biotinylated CCR6 (11A9, BD Biosciences) followed by staining with APC-conjugated streptavidin (SouthernBiotech). […]
# Memory CD4^+CCR6^+ and CD4^+CCR6^− cells were stained with carboxyfluorescein succinimidyl ester (CFSE) and cultured either in CM containing magnetic beads as described above or 10 ng/ml IL-7 and 10 ng/ml IL-15 (R&D Systems). […] At the end of the cultures, cells were analyzed by flow cytometry and used for methylation analyses (see below).
molecule,measurement,value
B1,effect on TCR-induced down-regulation of CCR6 expression,promoted
